Switch fluorescence ratio data for 78 sequences are collected here from the supplement of paper PMC10126150.

This data set deals with ATP. The data set can be described thus: switch fluorescence ratio, 500 uM ATP over buffer (Cy3 cluster intensity, sum of 5 cycles each) (fold (ratio)); higher = stronger signal-on switching upon ATP binding; sequences stand for … in TCGTCGGCAGCGTCAGATGTGTATAAGAGACAGTTTTTTTTTTTTTTTTTTTTTTTTT…TC. Conditions: aptamer strand: ATP DNA aptamer (quencher-CACCTGGGGGAGTATTGCGGAGGAAGG + anchor), 100 nM annealed; ATP concentration: 500 uM. Summed up: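 Cy3-labelled switching-strand clusters on a modified Illumina MiSeq flow-cell were annealed to 100 nM quencher-labelled ATP aptamer and imaged first in selection buffer, then after 15 min with 500 uM ATP at 22 °C. NaOH stripping and re-annealing separated each of five buffer/ATP cycles, and clusters outside 100-1000 RFU were excluded. The fluorescence ratio sums target-cycle Cy3 intensity over buffer-cycle Cy3 intensity per cluster and averages it per switch-domain sequence.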

± gives the standard deviation of the averaged measurements.
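Further: ATP exposure 15 min at 22 °C before imaging.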

As for ATGGCGTCCA, the switch fluorescence ratio was 0.977 ± 0.045. Next, ACGATCGGCT: 1.06 ± 0.2; TAAGTGCCAA: 1.01 ± 0.032. The figure for AATGGTAATA is 0.986 ± 0.025. Next, TTTAGGTGGC: 1.02 ± 0.009. As for GAGGTTAAAT, the switch fluorescence ratio stood at 0.992 ± 0.034. With TGTGTGGGTC, the switch fluorescence ratio was 0.991 ± 0.028. Next, TTTCTAGACA: 1.02 ± 0.021; GGGATCTATG: 1.02 ± 0.027. As to TGAGGGTTGT, the switch fluorescence ratio turned out to be 1.01 ± 0.046. With TAAGGGCGGA, the switch fluorescence ratio is 1.01 ± 0.023. Next, TAGTGTGGGG: 1.04 ± 0.034; ACGGGGGAAC: 1.046 ± 0.0071. Consider TTCAGGTATG, for which the switch fluorescence ratio worked out at 1.01 ± 0.028.

For the sequence ATCCTCGGGA, the switch fluorescence ratio was determined as 1.01 ± 0.034. The figure for GGAGAGGTTT is 1.05 ± 0.059; for GGTGTGTCTC it is 1.03 ± 0.065. With AGACATCCTT, the switch fluorescence ratio was 1.04 ± 0.014. On to TGAGTCTGTT, for which the switch fluorescence ratio came to 1.01 ± 0.028. Next, TAAGTCCTGT: 0.998 ± 0.033. For GAAGGTCCAC, the switch fluorescence ratio came to 1.017 ± 0.0078. On to ATAGAAGAAA, for which the switch fluorescence ratio is 1.02 ± 0.047. The figure for GGTGTGAGTA is 1.01 ± 0.016.

Take ATGTGATAGT: the switch fluorescence ratio stood at 0.98 ± 0.015.

For TGGGGGCAGT, the switch fluorescence ratio turned out to be 1.12 ± 0.066. On to TCGGGAAAAA, for which the switch fluorescence ratio was 0.991 ± 0.032. Next, ACTGATTTTG: 1.01 ± 0.029. The figure for TAGAGAGCT is 1.02 ± 0.015.

Consider TTGTCCTGGG, for which the switch fluorescence ratio is 1.02 ± 0.012. The figure for GGGGTGTATA is 1 ± 0.045. In the case of GTCCAGGGGA, the switch fluorescence ratio was 1.04 ± 0.1.

Consider GAGTGGTTGC, for which the switch fluorescence ratio was 1.05 ± 0.12. GGGGCAGAGG: the switch fluorescence ratio came to 0.997 ± 0.043. Take GTAGTTTTGC: the switch fluorescence ratio amounted to 1.0341 ± 0.00013. As to GTTGTTATAG, the switch fluorescence ratio was 1.02 ± 0.039. Next, GGTGTGAGGT: 0.9973 ± 0.0093; TCCATAGGGG: 1.53 ± 0.88. For AAGATTGCTT, the switch fluorescence ratio stood at 0.9874 ± 0.0032. In the case of GACTGGCACG, the switch fluorescence ratio amounted to 1.03 ± 0.034. Consider GGAAGGAGGC, for which the switch fluorescence ratio turned out to be 1.02 ± 0.088. Next, TTAGTTGA: 0.999 ± 0.015; AGGTTGGCGT: 0.995 ± 0.029.

Consider AGAAAAGCTC, for which the switch fluorescence ratio is 1.02 ± 0.033. With AACGCCATGC, the switch fluorescence ratio was determined as 2.68 ± 0.38. Consider GTTGGAAAGT, for which the switch fluorescence ratio is 0.99 ± 0.022.

For the sequence GGAGCCCGGT, the switch fluorescence ratio turned out to be 1.01 ± 0.029.

As to CCCAGCTTGT, the switch fluorescence ratio turned out to be 1.035 ± 0.0031. Consider ATGGTGATAG, for which the switch fluorescence ratio came to 0.992 ± 0.011. For GGTTTGGGGT, the switch fluorescence ratio stood at 0.99 ± 0.032. TTTTTGGTTA: the switch fluorescence ratio came to 1 ± 0.016.

As to ATGTTCTCTG, the switch fluorescence ratio came to 1.033 ± 0.0091. CTGGGGATTA: the switch fluorescence ratio was determined as 0.972 ± 0.031. The figure for GGTATTGGAC is 0.9947 ± 0.0058. On to TTTTTACTGT, for which the switch fluorescence ratio worked out at 1.01 ± 0.017.

On to TTTGGAATAG, for which the switch fluorescence ratio amounted to 1.06 ± 0.045.

For TTGCAGGGGT, the switch fluorescence ratio is 1.14 ± 0.25. On to AGGTCTTCCG, for which the switch fluorescence ratio was 1 ± 0.011. The figure for TTTTAAAAGT is 1 ± 0.03; for TTTGCTACTG it is 1.052 ± 0.0096; for TAGTTGTCCC it is 1.02 ± 0.045. Regarding CCAATTGGTG, the switch fluorescence ratio is 1.03 ± 0.016. Consider GGGGGTTTTT, for which the switch fluorescence ratio came out at 0.997 ± 0.033. As to TAAAAAAAGA, the switch fluorescence ratio was found to be 0.999 ± 0.046. Next, AAAGTGGGCG: 1.13 ± 0.18; GGGGTATATC: 1 ± 0.024; TGATCTTGTT: 0.9619 ± 0.0037. Next, CGGAGGACAC: 1.09 ± 0.059; GCAGTATGGT: 0.985 ± 0.016; AGGCAGGCCA: 1.17 ± 0.056. As to GCGGATGTCT, the switch fluorescence ratio turned out to be 1 ± 0.017. The figure for AGGGTAGGGC is 1.02 ± 0.025; for ATGGTGTTCG it is 0.987 ± 0.019; for TAACGGGTTG it is 1.03 ± 0.029. For ATACTTTTGG, the switch fluorescence ratio amounted to 1 ± 0.011.

As to GGGGGTTGGA, the switch fluorescence ratio is 1.01 ± 0.032. For the sequence GTGAAGTATT, the switch fluorescence ratio stood at 0.983 ± 0.033. Consider GAAATTGGGA, for which the switch fluorescence ratio came out at 1.08 ± 0.12.

For TTCGACCGTG, the switch fluorescence ratio turned out to be 0.997 ± 0.033.
